Assay results reported in PMC7452893 (2020).
Residue numbers refer to the chain shown, from its start.

B1: MD62 (antibody, V domains shown)
VH: EVQLVQSGGGLIQPGGSLRLSCAASGVTVSSNYMTWVRQAPGKGLEWVSLIYSGGSTYYADSVKGRFTISRDNSKNTLYLQMNSLRAEDTAVYYCARDLQYYGMDVWGQGTMVTVSS
VL: AIRMTQSPSSVSASVGDRVTITCRASQDIGSWLGWYQQKPGKAPKLLIYAASSLAGGVPSRFSGSGSGTDFTLTISSLQPEDFATYYCQQANSFPLTFGGGTKLEIK
modifications: biotinylated when immobilised on the BLI sensor
B2: MD67 (antibody, V domains shown)
VH: EVQLVESGGGLVQPGGSLRLSCAASGFTVSSNYMTWVRQAPGKGLEWVSVIYSGGSTFYADSVKGRFTISRHNSKNTLYLQMNSLRAEDTAVYYCARDLSVRGGMDVWGQGTTVTVSS
VL: not shown
modifications: biotinylated when immobilised on the BLI sensor
B3: MD45 (antibody, V domains shown)
VH: B2 VH with E6Q, T113M
VL: EIVLTQSPGTLSLSPGERATLSCRASQSVNSSYLAWYQQKPGQAPRLLIYGASNRATGIPDRFSGSGSGTDFTLTISRLEPEDFAVYYCQQYGVSPEIIFGQGTRLEIK
modifications: biotinylated when immobilised on the BLI sensor
B4: MD47 (antibody, V domains shown)
V domain 1: QMQLVQSGGGLVQPGGSLRLSCAASGFTFSSYAMSWVRQAPGKGLEWVSAISSGGSTYYADSVKGRFTISRDNSKNTLYLQMNSLRAEDTAVYYCAKDLVTAPSYEAFDIWGQGTMITVSS
V domain 2: NFMLTQPPSVSVAPGKTARITCGGNNIGSKSVHWYQQKPGQAPVLVIYYDSDRPSGIPERFSGSNSGNTATLTISRVEAGDEADYYCQVWDSSSHHHVVFGGGTKGTVL
modifications: biotinylated when immobilised on the BLI sensor
B5: MD29 (antibody, V domains shown)
VH: QMQLVQSGGGLVQPGGSLRLSCSASGFTFSTYVMNWVRQAPGKGPEHVSGISSDGGITYYADSVKGRFTISRDNSKNTLYLQMSSLRVEDTAVYYCVKDQDSSSWYDAFDIWGQGTMVTVSS
VL: NIRLTQSPSSLSASVGDRVTITCRATQSISSYLNWYQQKPGKAPNLLIYAASSLQSGVPSRFSGSGSGTDFTLTISSLQPEDFATYYCHQTYTSPYTFGQGTKLEIK
modifications: biotinylated when immobilised on the BLI sensor
B6: MD63 (antibody, V domains shown)
VH: QVTLKESGGGVVQPGRSLRLSCAASGFTFSSYAMHWVRQAPGKGLEHVSAISSDGGITYFADSVKGRFTISRDNSRNTLFLQMSSLRVEDTAVYYCVKDQDSNSWYDAFDIWGRGTMVTVSS
VL: not shown
modifications: biotinylated when immobilised on the BLI sensor
B7: MD17 (antibody, V domains shown)
VH: B5 VH with Q1E, M2V, V5L, Q6E, P45L
VL: DIVMTQSPSSLSASVGDRVTITCRASQSISNYLNWYQQKLGKAPKLLTYAASRLQSGVPSRFSASGSGTEFTLTISSLQPEDFATYYCQQSYTTPLTFGGGTKLEIK
modifications: biotinylated when immobilised on the BLI sensor

Columns and labels:
[1] = molecular target: T1, SARS-CoV-2 spike receptor-binding domain (RBD), monomeric (SARS-CoV-2, UniProt P0DTC2); assay: BLI
[2] = molecular target: T1, SARS-CoV-2 spike receptor-binding …; assay: BLI; remark: listed apart in the source

Row | Binder | Kd [1] | koff [2]
1 | B1 | 4.8 nM | 0.00063 s⁻¹
2 | B2 |  | 0.00075 s⁻¹
3 | B3 | 5.6 nM | 0.00055 s⁻¹
4 | B4 | 0.5 nM | 9e-05 s⁻¹
5 | B5 |  | 0.00014 s⁻¹
6 | B6 | 3.4 nM | 0.00053 s⁻¹
7 | B7 | 2.6 nM | 0.00026 s⁻¹
